{"source": "the DeepSol protein solubility set", "data": [{"experiment": "soluble on expression in E. coli; label from the status in PepcDB or PDB records", "values": [{"sequence": "MEEFTWRVGGPQGGGIETAATLFARAVGKGGWWVATKREYHSNIMGRHSYLDVRLARKPVQAFRERVDFLVALDGETLARHLGEVREGGVVLYDPKVLELTLHKLPMLDHRVAEDLAKRLGQADPSLKEVLQAYAEAGVQPLPYPFEAVADRIGEALGVPSLKARRTLNTIAVAASLHLLSYPLEPLLQALALQFRGEVLELNRKVAEAVYREEAPRLPFRLEVLGPAPGRIYLTGAQAAALGKLAGGLRFQTYYPISPATDESVFLEAHTHLPGADVAVVQTEDEIAAVNMAVGAALAGAKAATATSGPGFSLMAEGLGFAGMIEAPLVVTLYQRGGPSTGLPTRTEQGDLMFAIRGGHGEYPRLVLASGDILDAFLDAQKALAWAWRYQTVVVHLLDKFLASLAQSLPKEALKVLSLDGEKRLSPREGFGPYQRYAPGEDGLSPFIPIGTPGGFYWMTSDEHDPLGHITEDVELRELQMEKRMEKLELARKEIPLEDQYTLFRDGEVLVLGWGTVKGTLLEALDHLEGVGYLHLRLLWPFPRIAPLLEGKTLVTVEHNYSGQLADLVQQETLKRVHHRVVKYNGRPITLEEAVEALKAVREGRAPERLVLRKGV", "soluble on expression in E. coli": "soluble"}, {"sequence": "MATTQQSSTKQDILEYLLKEVQATSLELAEVLEVSPQAIRRHLKDLETDNLVVYFVPEQVGMGRPQHLYQLSQRGREQLQRNVNRLSDGYGDFAVSLLDTLAATVGREQVKTILQKQWERKAQEYRERVGTGSLQERVANLVELRKAEGFMAEFYPVESDSAHSERFIFMEHTCAISNVAESFPSICGHELEMFAAILPDCTVKRTHWLIDGEHRCGYLVQRSSGVTGVTEVEN", "soluble on expression in E. coli": "not soluble"}, {"sequence": "MGSDKIHHHHHHMKAIGYQTAGAITAPNALENITLAEPTATGFDLLVEIKAISVNPVDTKIRASSSAPTGEYKIIGWDAVGVVKAVGEKVSLFNVGDEVWYAGDISRSGSYAEYQLVDERIVGHKPKSLTYTQAAALPLTGITAWEILFDRLALPQDGSATDARILIIGAAGGVGSIITQLAVKLTGAEVIGTASRPESAAWVHKLGANAVINHTKPLSKELANIGITDVTHVISLTQTDQHFDEIVQVLKPQGKLALIDDPKGPLDVMKLKRKSLSLHWELMFTRSLYQTEDMIAQHHLLNRLSALIDTGELQSTFGEHYGTINAQNLIKAHAQIESGKAIGKIVLEGFNQ", "soluble on expression in E. coli": "not soluble"}, {"sequence": "DDLIEGYLSSEEYYHEESARYIQKFSKYVSENELSTSDRKAFGEWVKKENYINLTIFKDQELQYDSIYSESDYGKEKLTQYAQNHSHPVKFSDGEGRVIIDGFYSSRYYD", "soluble on expression in E. coli": "not soluble"}, {"sequence": "MSLETWYDFDLPLDRTDPITIIHFNDVYNIESRCDGTGGVSRFVTALQSFQHKHPLILFSGDVLNPSVMSTYTRGRHMVPFLNLLKIHTACFGNHDFDFGIDELEYAVGSCSFPWLISNVFEKTGQTGLPLANGMKYRLFEWQGIRVGIIGLVEKEWLDTLACIDKDDVVYVDFVEAANCLCRILRQKECELIIALTHMRAPNDERLAKEAEDIDLILGGHDHDYYGLQRIGNIPVVKSGTDFRDFTVITIHPGQGSRLDASSLPTPPTQNKFGSTTFVSEEAARREAAVTAEMFKGPLLPTTVEGGEEVMPFFLGGSIVEWSRVRVDPERFEKNKHVELLVKKYEQNLKKQMKQILVDAACDLETRFSVIRTSESNVGNWLCDLMRRECRADIAILNSGTIRSDCLFPPGPFRFGDLAAMLPMTDTLCVIAVHGNVLLQALENAVSQLPKTEGRFLQVAGIRFAFNSSKPVGQRVVRDSVKVAQDACGRVHSGAATPVGEGKKSESDYLPLDENRVYSVATKTYLAQGRDGFHMLSKCPVLVEDELLPPLPTMVRSALSMAEMANGIKRPHSRITFKRLTEGHHHHHH", "soluble on expression in E. coli": "not soluble"}, {"sequence": "MLGIVIATHGALSDGAKDAATVIMGATENIETVNLNSGDDVQALGGQIKTAIENVQQGDGVLVMVDLLSASPYNQAVLVINELEPALQKKIFVVSGTNLPMVLEAINHQLLGTPIAEAAQAIVAQGKESVQAWDISMTSFEDEEDEDDDF", "soluble on expression in E. coli": "soluble"}, {"sequence": "GSSPNLRYPIADVSGGIGMSPNYRFRQSMWIGIVSYSGSGLNWRVQVNSDIFIVNDYIHICLPAFDGFSIADGGDLSLNFVTGLLPPLLTGDTEPAFHNDVVTYGAQTVAIGLSSGGTPQYMSKNLWVEQWQDGVLRLRVEGGGSITHSNSKWPAMTVSYPRSFT", "soluble on expression in E. coli": "soluble"}, {"sequence": "MIEDYALIGDMQIAALVCQDGTVDWLCLPRFDSHAVFAGLLGTEEHGFWRLGPAHASDAEPPRASRRTYRGDSLILESEWDTPRGTVRVTDFMPPRDGAPQLIRIVEGVTGRVPMRSALEHHHHHH", "soluble on expression in E. coli": "soluble"}, {"sequence": "MAHHHHHHMSMKKKMTKPFRTVVHLPVEEARGAIVRMIRRHNAVVIVGETGSGKTTQIPQYVWDDLVSREPPEQQGIVGCTQPRRVAAVSIARHVAKQRGGSVGAEVAYAVRFDDTCSRQTKIKYMTDGILLREIQTDPDLSHYRCLLLDEAHERTLHGDVLFGLLKDIVRRRKKTLTIVVMSATLNAEHFSKFWWNAPIGVVHGRLYPVTIFHTVEPQADYVEAAVSTLLQIHEKEEPGDVLCFLTGQEEIEDAKRILERRMKVMPSTLQEFMILTLYSAMPYEQQLRVFEPPLPGKRRIILSTNIAETSITVEGIRYVVDSGVVKAKFFSSKSGMEVLSEVDVSKAQATQRAGRAGRMTAGKCFRLYTAQAFESLAENTVPEIQRSSLISVVLEMKSLRIDRIMDFEFMDAPNPKAVVRAEETLMLLGALDRQGHITRLGQRLIDFPIEPMAAIVLLAGKALGVERDVTIAISMTMTENLFFTSREAKDGADRCKAAFAKSAGDHATLLGIYYAYKRVPKDQRKMWCESNAVNPSQMLKAEDVMTQLGAILNEHSDEELLSTMVRRSPNLAGNGAALHRKRRRDSEKDASGDDETSELLKGQTSGMVKLRDFELIRRALCYGFSLNAAFYNAKIGNYQTVVGQQVVHLHPSSVLFYQRKKPALVVFNSVVRTTRRYMKDVSVVQEEWLRDAASFLRPVA", "soluble on expression in E. coli": "not soluble"}, {"sequence": "MSQLLKLKSQYDDECTVTRHYEGKGRNAGRLGAVGCKNRHGEFRIGSGFKDKDRDNPPKIGTLITYRYRGFTRKGTPKFATFVRVRTLEHHHHHH", "soluble on expression in E. coli": "not soluble"}, {"sequence": "MSLEELSLYTLRHVLERSAVLYADQPSLSQLGCEPLTFRDLHDHAEHLALWLRDNGVGTGDRVALLAENSPNWGIAYFAITGMGAIAVPILPEFHADAVQHILRHSEAKAVFVSERLFPKLEEGEGIADSLMCISMETFQSIAQGTTRDMLRELKSKGLREFRKLRDKAKRLANMADAAPAEDDVAAIIYTSGTTGHSKGVVLTHRNIVWDADAVKSIVKLGPGDRMLSILPLSHTYECTLGLVLPVLNGAHVHYMDKPPTARALLPAMAQVRPTAMLSVPLVIEKIFKTALLPKLTGSWLKQRLYAIPFVRRKLHALAGRKLLESFGGALRIFCIGGAGIAPDVERFLREANFPYAIGYGLTETAPLVAGSGPASTRLTSTGFTLDGVDIAIDAPDPATGEGEIIVRGPNVMREYYKAPQITASAFTPEGWFRTGDLGKFDADGYLYIKGRLKNVIIGPSGENIYPEEVEAIIHQSPFVLESLVFQQDGRLVARIHLDAARLDESFGDLPALKQREKIDALLETLRNEVNTKVSTFARLAKVIEQTEPFEKTPTHKIKRYLYVEQEGHHHHHH", "soluble on expression in E. coli": "soluble"}, {"sequence": "SIRFVIDREECFSHKAEYEGDTLHVSFVVIKSDSQWHFNEDGVDLVIHGPTGEQIHDFREQISAKHDFVVQKKGVYRFCFTNKSPYHETIDFDVQLGHFAYYDQHAKDEHFTPLMEQISKLEEALYNIQFEQHWLEAQTDRQAIVNENMSKRAVHKALFESFALIGASFLQVYLLRRLFERKLGMSRV", "soluble on expression in E. coli": "soluble"}, {"sequence": "MVMSIEASCHCGETVFEVTEAPSSVTRCTCSLCAKRGSLWAYYKPAQFRLLSPPENVTTYLWGSRTVKHHFCASCGCGTYSESPDWSTGKPDFDNPKVAVNARLFDDFDLDAVPVNMIDGKNLWLEHHHHHH", "soluble on expression in E. coli": "soluble"}, {"sequence": "MGISTFFLSVTLFTVNRTCDLLTPPPWYPITVKNTHHTSRHRSIFFILSVMIGKGTREDVQLSLSSLFQGVVMIVGQNPQAPSDLGIEGGERAQGQNAHSVHGPGLQTERGGSQLQMVGHPLRELLEHHHHHH", "soluble on expression in E. coli": "not soluble"}, {"sequence": "MSFDPLPGTLENLLEQTSLKWIFVGGKGGVGKTTTSCSLAIQMSKVRSSVLLISTDPAHNLSDAFGTKFGKDARKVPGFDNLSAMEIDPNLSIQEMTEQADQQNPNNPLSGMMQDLAFTIPGIDEALAFAEILKQIKSMEFDCVIFDTAPTGHTLRFLNFPTVLEKALGKLGGLSSRFGPMINQMGSIMGVNANEQDLFGKMESMRANISEVNKQFKNPDLTTFVCVCISEFLSLYETERMIQELTSYEIDTHNIVVNQLLLDPNTTCPQCMARRKMQQKYLAQIEELYEDFHVVKVPQVPAEVRGTEALKSFSEMLVKPYVYPTSGKE", "soluble on expression in E. coli": "soluble"}, {"sequence": "SLSSPGDIPAEDFADHVRKNERDSNCGFADEYQQLSLVGHSQSQMVASASENNAKNRYRNVLPYDWSRVPLKPIHEEPGSDYINASFMPGLWSPQEFIATQGPLPQTVGDFWRLVWEQQSHTLVMLTNCMEAGRVKCEHYWPLDSQPCTHGHLRVTLVGEEVMENWTVRELLLLQVEEQKTLSVRQFHYQAWPDHGVPSSPDTLLAFWRMLRQWLDQTMEGGPPIVHCSAGVGRTGTLIALDVLLRQLQSEGLLGPFSFVRKMRESRPLMVQTEAQYVFLHQCICGSSNSQPRPQPRRKSRMRMSKTSSTRTWPPSRPTSWRSK", "soluble on expression in E. coli": "soluble"}, {"sequence": "MGRMIDGDWRTEADMNEHSDDGAFERDTTSFRHWVGDDVPPAAGRYHLYVSYACPWAHRTLLVRALLGLEDAISVSVVDPVRYDQGWTFDPEKPGCTPDHVFGGTHLRDVYTEADPEYTGRVTVPVLYDTDADTIVNNESEEIMRMLDVAFDDHAARDVDLYPEGYRDEVDRLIEDIYDPINNGVYRAGFADSQRAYDNAVDDLFEALAHYDDVLAEQRYLAGDVLTEADVAMFTTLYRFDEVYHTHFKCNRKRISDYDNLWPYLRELCQLPGVADTLYMEHVKQHYYRSHGHLNPKRLVPTGPNPAFFAPHDRDQLEHHHHHH", "soluble on expression in E. coli": "not soluble"}, {"sequence": "MSLPPSQSDRDPFSVTMCHSTLASLPLVYACSGCSSVAQLANTFAVRLDRSGAAEMSCISGVGGGVPALTRVARSGRPILALDGCALSCVKACLASVDVVPDRHLVLNRLGATKRQHGVCTEAEEAETWDAVQQALAEVRGAMEGHHHHHH", "soluble on expression in E. coli": "soluble"}, {"sequence": "MGSDKIHHHHHHMSASLQTADRVRRWRIEGELTTRTPLHMGSGSFEARQELRRAPQTDDIAKAKAVLLDSDQRPCLTGSGLKGAMLAWANAYLPDPERDRLLFGCEPDGDGKGQGGRLEFQTAFLSQNKENTSPSSSPTPFWMSDRRTDVDTGVRINRASGTALDKHLFYKEVVAPGTAFRMVLDLDLPACCTDKGHALVNRVLALLEAFNLSDDDRVPPLTLGAMTGRGHGRFAWRLTNLSRVTDASARTWIDKGAPGTWAAALTPVPDKGPWQTTAKATLEVVQSPATLVCEVTLTFDHRFLISEPARVVTEDEARTRSGKTRTAGIMPKVDGKGNAVLPTASIKGVLRSRAERILATLTGDASAFEHAPGRGPAGQDNPAADMMTDRCLPTSRLFGAASWRAALDVEPFRPLSGHTTVAHQELVAIDRFTGGVSGSAKYDIDAFHRPQFKGRLRLNLRRSRLEDVGLLVLLLRDLAEGDLSFGYGGTKGYGGTQAMVTVQVRGTTAGTQALPLPEETGGAGIDTPVSWSSIQDSALASPLREAVAAFRRLYCKGEAV", "soluble on expression in E. coli": "not soluble"}]}]}
